Assay results: article PMC4971460

Target: MBP-GS fusion construct Δ2 (not stated | E. coli) [MBP: P0AEX9]
Assay: cryo-EM structure

“MBP-GS fusion construct Δ2 (from UniProt P0AEX9 27-396; P0A9C5 3-469)” was tested, and the stoichiometry N was 12.
